T1: Sema3A(65) (human (by the filing's definition of …, UniProt Q14563 21-555, limits assumed))
T1 construct: also called recombinant pure Sema3a protein; 65 kDa furin cleavage
T1 sequence: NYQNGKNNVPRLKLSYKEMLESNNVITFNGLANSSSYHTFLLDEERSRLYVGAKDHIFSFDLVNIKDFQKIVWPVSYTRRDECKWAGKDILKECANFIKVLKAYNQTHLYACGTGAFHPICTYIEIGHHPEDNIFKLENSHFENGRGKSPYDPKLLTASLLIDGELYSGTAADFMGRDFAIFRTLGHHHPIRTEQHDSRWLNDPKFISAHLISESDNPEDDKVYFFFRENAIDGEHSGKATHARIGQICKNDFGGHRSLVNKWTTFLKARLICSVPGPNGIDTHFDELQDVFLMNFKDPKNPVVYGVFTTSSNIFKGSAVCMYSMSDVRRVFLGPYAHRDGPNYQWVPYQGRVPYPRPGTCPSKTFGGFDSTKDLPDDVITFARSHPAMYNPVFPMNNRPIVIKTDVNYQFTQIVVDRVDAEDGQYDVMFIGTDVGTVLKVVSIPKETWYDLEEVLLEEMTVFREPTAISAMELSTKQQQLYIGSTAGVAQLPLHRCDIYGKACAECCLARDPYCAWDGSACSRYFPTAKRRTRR


Target: T1, Sema3A(65)
Assay: ELISA on coated antigen (5 µg/ml), Fab in 2 fold dilutions from 1 µM, detection with HRP goat anti human H+L
Protocol: FIGS. 1A-B are graphs illustrating purification and ELISA binding evaluation of anti Sema3a isolated Fabs for estimated Kd values. The analyzed antibody was added in 2 fold dilution series starting at 1 μM to the antigen (Sema3A) coated wells (5 μg/ml). Bound antibodies were detected with horseradish peroxidase (HRP)-conjugated goat anti human H+L secondary antibodies. Fab 3H4 (FIG. 1A), L4B8 and L4E6 (FIG. 1B) are presented.

Binder	EC50 (read off the curve) [nM]
Fab L4E6 (Fab, V domains shown, C-terminal His tag on the Fd fragment) VH: EVQLLESGGGLVQPGGSLRLSCAASGFTFSNFVMNWVRQAPGKGLEWVSRINTDGTSTNYADSVTGRFTISRDNSKNTLYLQMNSLRAEDTAVYYCARDYPLRRLMYYYYGMDVWGQGTLVTVSS VL: DIVLTQSPGTLSLSPGERATLSCRASQTISSNLAWYQQKPGQAPRLLIYGASSRATGIPDRFSGSGSGTDFTLTISRLEPEDFAVYYCQQYSWSPRVYSFGQGTKLEIK	~200
Fab L4B8 (Fab, V domains shown, C-terminal His tag on the Fd fragment) VH: EVQLLESGGGLVQPGGSLRLPCAASGFTVGLYNINWVRQAPGKGLAWVSTISGSGLNTYYSDPVKGRFTISRDNSKNTLYLQMNSLRAEDTAVYYCARDEDTYAFNWGQGTLVTVSS VL: DIVLTQSPGTLSLSPGERATLSCRASQSVSSSYLAWYQQKPGQAPRLLIYGASTRAPGIPDRFSGSGSGTDFTLTISRLEPEDFAVYYCHQRGSGDTFGPGTKVEIK	~100

From patent US20220251193A1 (RAMOT AT TEL AVIV UNIVERSITY, published 2022)
